# Changes are numbered by the printed parent chain. Names may count otherwise.
# B1: v23820 (antibody, human IgG1, kappa, V domains shown)
# VH: QEQLVESGGGLVQPEGSLTLTCKASGFTISNNYYMCWVRQAPGKGLEWIACIYGGISGRTYYASWAKGRFTISKTSSTTVTLQMTSLTAADTATYFCVRGYVGTSNLWGPGTLVTVSS
# VL: DIVMTQTPASVEAAVGGTVTIKCQASQSIYSSLAWYQQKPGQSPKLLIYDASHLASGVPSRFSGSRYGTEFTLTISGVQCDDAATYYCQGGWYSSAATYVPNTFGGGTEVVVKR
# notes: FSA format; rabbit variable domains, human IgG1/kappa constant domains; also called 8K22 rabbit-human parental chimera
# B2: v23794 (antibody, human IgG1, kappa)
# heavy: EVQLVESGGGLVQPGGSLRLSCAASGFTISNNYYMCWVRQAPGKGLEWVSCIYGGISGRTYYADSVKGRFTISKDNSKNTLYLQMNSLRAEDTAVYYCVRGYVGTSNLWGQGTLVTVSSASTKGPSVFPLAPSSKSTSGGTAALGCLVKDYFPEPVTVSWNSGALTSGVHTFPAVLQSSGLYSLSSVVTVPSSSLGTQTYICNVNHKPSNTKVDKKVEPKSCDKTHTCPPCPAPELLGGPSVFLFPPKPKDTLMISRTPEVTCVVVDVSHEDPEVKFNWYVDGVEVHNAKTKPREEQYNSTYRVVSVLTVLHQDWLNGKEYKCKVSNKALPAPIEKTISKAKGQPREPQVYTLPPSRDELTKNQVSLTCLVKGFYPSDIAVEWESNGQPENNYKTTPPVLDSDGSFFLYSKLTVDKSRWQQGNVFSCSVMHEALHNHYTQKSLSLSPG
# light: DIQMTQSPSSLSASVGDRVTITCQASQSIYSSLAWYQQKPGKAPKLLIYDASHLASGVPSRFSGSGSGTDFTLTISSVQPEDFATYYCQGGWYSSAATYVPNTFGGGTKVEIKRTVAAPSVFIFPPSDEQLKSGTASVVCLLNNFYPREAKVQWKVDNALQSGNSQESVTEQDSKDSTYSLSSTLTLSKADYEKHKVYACEVTHQGLSSPVTKSFNRGEC
# notes: also called humanized 8K22 H1L1
# B3: v23802 (antibody, human IgG1, kappa)
# heavy: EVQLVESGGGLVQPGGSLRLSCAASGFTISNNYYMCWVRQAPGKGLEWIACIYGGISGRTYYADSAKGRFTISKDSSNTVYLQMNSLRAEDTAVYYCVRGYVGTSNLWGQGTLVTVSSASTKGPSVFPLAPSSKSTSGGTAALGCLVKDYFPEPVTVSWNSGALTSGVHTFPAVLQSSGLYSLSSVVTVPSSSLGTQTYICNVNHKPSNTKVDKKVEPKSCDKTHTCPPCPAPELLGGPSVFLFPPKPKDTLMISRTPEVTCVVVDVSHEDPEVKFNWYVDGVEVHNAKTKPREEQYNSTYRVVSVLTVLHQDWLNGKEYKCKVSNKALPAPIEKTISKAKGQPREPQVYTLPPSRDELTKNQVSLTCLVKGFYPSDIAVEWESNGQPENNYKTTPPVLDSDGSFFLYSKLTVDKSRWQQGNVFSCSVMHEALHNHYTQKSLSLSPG
# light: B2 light with I112V
# notes: also called humanized 8K22 H4L2
# B4: v23801 (antibody, human IgG1, kappa)
# heavy: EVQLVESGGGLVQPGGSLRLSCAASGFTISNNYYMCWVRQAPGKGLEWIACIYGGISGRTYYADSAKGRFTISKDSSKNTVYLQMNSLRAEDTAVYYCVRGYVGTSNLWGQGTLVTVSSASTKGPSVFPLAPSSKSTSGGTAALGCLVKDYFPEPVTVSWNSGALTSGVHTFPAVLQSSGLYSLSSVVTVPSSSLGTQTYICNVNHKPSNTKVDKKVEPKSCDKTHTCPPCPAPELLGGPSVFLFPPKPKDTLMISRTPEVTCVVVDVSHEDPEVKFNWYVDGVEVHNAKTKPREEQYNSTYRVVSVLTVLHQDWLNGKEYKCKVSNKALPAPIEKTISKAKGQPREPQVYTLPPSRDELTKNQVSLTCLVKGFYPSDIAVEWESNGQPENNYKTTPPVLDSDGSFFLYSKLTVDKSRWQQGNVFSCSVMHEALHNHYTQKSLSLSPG
# light: B2 light with I112V
# notes: also called humanized 8K22 H3L2
# B5: v23804 (antibody, human IgG1, kappa, V domains shown)
# VH: EVQLVESGGGLVQPGGSLRLSCAASGFTISNNYYMCWVRQAPGKGLEWVSCIYGGISGRTYYADSVKGRFTISKDNSKNTLYLQMNSLRAEDTAVYYCVRGYVGTSNLWGQGTLVTVSS
# VL: DIQMTQSPSSLSASVGDRVTITCQASQSIYSSLAWYQQKPGKAPKLLIYDASHLASGVPSRFSGSRYGTDFTLTISSVQPEDFATYYCQGGWYSSAATYVPNTFGGGTKVEVKR
# notes: also called humanized 8K22 H1L3
# B6: v23811 (antibody, human IgG1, kappa, V domains shown)
# VH: B5 VH with V49I, S50A, V66A, N76S, L81V
# VL: B5 VL with R66G, Y67S, F83A
# notes: also called humanized 8K22 H3L4
# B7: v23809 (antibody, human IgG1, kappa, V domains shown)
# VH: B5 VH
# VL: B5 VL with R66G, Y67S, F83A
# notes: also called humanized 8K22 H1L4
# B8: v23805 (antibody, human IgG1, kappa, V domains shown)
# VH: B5 VH with V49I, S50A, V66A, L81V
# VL: B5 VL
# notes: also called humanized 8K22 H2L3
# B9: v23816 (antibody, human IgG1, kappa, V domains shown)
# VH: B5 VH with V49I, S50A, V66A, N76S, L81V
# VL: B5 VL with F83A
# notes: also called humanized 8K22 H3L5
# B10: v23817 (antibody, human IgG1, kappa, V domains shown)
# VH: EVQLVESGGGLVQPGGSLRLSCAASGFTISNNYYMCWVRQAPGKGLEWIACIYGGISGRTYYADSAKGRFTISKDSSNTVYLQMNSLRAEDTAVYYCVRGYVGTSNLWGQGTLVTVSS
# VL: B5 VL with F83A
# notes: also called humanized 8K22 H4L5
# B11: v23808 (antibody, human IgG1, kappa, V domains shown)
# VH: B5 VH with V49I, S50A, S65W, V66A, N76S, L81V
# VL: B5 VL
# notes: also called humanized 8K22 H5L3
# B12: v23807 (antibody, human IgG1, kappa, V domains shown)
# VH: B10 VH
# VL: B5 VL
# notes: also called humanized 8K22 H4L3
# B13: v23814 (antibody, human IgG1, kappa, V domains shown)
# VH: B5 VH
# VL: B5 VL with F83A
# notes: also called humanized 8K22 H1L5
# B14: v23812 (antibody, human IgG1, kappa, V domains shown)
# VH: B10 VH
# VL: B5 VL with R66G, Y67S, F83A
# notes: also called humanized 8K22 H4L4
# B15: v23797 (antibody, human IgG1, kappa)
# heavy: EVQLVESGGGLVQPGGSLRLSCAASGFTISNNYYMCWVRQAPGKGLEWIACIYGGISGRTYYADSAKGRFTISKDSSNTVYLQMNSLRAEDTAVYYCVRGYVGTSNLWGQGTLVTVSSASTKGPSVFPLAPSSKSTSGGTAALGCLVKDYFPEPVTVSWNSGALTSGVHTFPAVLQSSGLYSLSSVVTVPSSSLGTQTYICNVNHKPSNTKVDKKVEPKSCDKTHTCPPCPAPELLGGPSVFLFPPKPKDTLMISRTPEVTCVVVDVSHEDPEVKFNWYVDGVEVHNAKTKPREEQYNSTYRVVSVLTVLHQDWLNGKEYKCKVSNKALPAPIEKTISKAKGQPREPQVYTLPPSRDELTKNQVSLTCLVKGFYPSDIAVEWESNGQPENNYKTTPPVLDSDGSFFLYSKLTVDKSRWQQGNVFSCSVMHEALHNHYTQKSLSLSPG
# light: B2 light
# notes: also called humanized 8K22 H4L1
# B16: v23818 (antibody, human IgG1, kappa, V domains shown)
# VH: B5 VH with V49I, S50A, S65W, V66A, N76S, L81V
# VL: B5 VL with F83A
# notes: also called humanized 8K22 H5L5
# B17: v23806 (antibody, human IgG1, kappa, V domains shown)
# VH: B5 VH with V49I, S50A, V66A, N76S, L81V
# VL: B5 VL
# notes: also called humanized 8K22 H3L3
# B18: v23798 (antibody, human IgG1, kappa)
# heavy: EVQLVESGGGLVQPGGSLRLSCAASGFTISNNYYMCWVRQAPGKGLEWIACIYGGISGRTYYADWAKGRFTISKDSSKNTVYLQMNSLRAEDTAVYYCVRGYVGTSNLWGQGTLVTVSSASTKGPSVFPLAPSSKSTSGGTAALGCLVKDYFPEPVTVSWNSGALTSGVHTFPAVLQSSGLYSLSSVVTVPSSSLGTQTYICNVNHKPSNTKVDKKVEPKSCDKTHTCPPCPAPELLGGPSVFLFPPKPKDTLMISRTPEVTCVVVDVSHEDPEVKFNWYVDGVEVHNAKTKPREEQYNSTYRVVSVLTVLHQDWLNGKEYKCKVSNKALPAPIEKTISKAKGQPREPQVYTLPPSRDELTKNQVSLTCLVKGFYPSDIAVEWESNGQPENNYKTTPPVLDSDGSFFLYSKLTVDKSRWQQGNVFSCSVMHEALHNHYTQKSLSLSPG
# light: B2 light
# notes: also called humanized 8K22 H5L1
# B19: v23815 (antibody, human IgG1, kappa, V domains shown)
# VH: B5 VH with V49I, S50A, V66A, L81V
# VL: B5 VL with F83A
# notes: also called humanized 8K22 H2L5
# B20: v23796 (antibody, human IgG1, kappa)
# heavy: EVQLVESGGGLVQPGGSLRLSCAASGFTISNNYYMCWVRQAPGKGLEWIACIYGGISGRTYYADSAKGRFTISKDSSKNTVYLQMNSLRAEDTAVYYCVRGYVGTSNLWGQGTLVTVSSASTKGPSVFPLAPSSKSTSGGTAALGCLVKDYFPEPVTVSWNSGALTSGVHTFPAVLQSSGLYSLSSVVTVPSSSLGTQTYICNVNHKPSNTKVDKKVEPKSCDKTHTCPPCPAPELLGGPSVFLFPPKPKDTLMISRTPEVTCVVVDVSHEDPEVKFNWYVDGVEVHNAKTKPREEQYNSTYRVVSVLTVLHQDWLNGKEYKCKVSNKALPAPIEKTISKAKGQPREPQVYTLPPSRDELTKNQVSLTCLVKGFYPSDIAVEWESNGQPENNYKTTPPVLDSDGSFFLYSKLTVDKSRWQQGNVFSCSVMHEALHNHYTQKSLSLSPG
# light: B2 light
# notes: also called humanized 8K22 H3L1
# B21: v23799 (antibody, human IgG1, kappa)
# heavy: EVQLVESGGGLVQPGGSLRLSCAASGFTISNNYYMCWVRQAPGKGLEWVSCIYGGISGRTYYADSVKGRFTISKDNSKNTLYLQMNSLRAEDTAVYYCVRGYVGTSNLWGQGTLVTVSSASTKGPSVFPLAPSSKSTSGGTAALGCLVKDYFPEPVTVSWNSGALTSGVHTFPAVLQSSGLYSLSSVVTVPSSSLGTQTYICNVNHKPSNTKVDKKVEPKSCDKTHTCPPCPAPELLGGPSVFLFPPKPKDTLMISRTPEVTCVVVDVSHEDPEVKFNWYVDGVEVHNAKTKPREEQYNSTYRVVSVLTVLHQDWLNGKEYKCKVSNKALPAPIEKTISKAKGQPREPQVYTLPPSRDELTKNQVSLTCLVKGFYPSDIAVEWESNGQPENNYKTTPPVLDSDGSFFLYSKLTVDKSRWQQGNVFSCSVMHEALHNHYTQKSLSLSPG
# light: B2 light with I112V
# notes: also called humanized 8K22 H1L2
# B22: v29679 (scFv)
# scFv: EVQLVESGGGLVQPGGSLRLSCAASGFTISNNYYMCWVRQAPGKGLEWIACIYGGISGRTYYADSAKGRFTISKDSSNTVYLQMNSLRAEDTAVYYCVRGYVGTSNLWGQGTLVTVSSGGGGSGGGGSGGGGSDIQMTQSPSSLSASVGDRVTITCQASQSIYSSLAWYQQKPGKAPKLLIYDASHLASGVPSRFSGSRYGTDFTLTISSVQPEDFATYYCQGGWYSSAATYVPNTFGGGTKVEVK
# notes: One-armed, scFv at the C-terminus of Het FcA (GGGG linker); also called C-term VH-(short)-VL
# B23: v29683 (scFv)
# scFv: B22 scFv with G45C, G239C
# notes: One-armed, scFv at the C-terminus of Het FcA; VL-G100C and VH-G44C already in the entry; also called C-term VH-(short)-VL + disulfide
# B24: v29681 (scFv)
# scFv: EVQLVESGGGLVQPGGSLRLSCAASGFTISNNYYMCWVRQAPGKGLEWIACIYGGISGRTYYADSAKGRFTISKDSSNTVYLQMNSLRAEDTAVYYCVRGYVGTSNLWGQGTLVTVSSGGSGGGSGGGSGGGSGGGSGDIQMTQSPSSLSASVGDRVTITCQASQSIYSSLAWYQQKPGKAPKLLIYDASHLASGVPSRFSGSRYGTDFTLTISSVQPEDFATYYCQGGWYSSAATYVPNTFGGGTKVEVK
# notes: One-armed, scFv at the C-terminus of Het FcA (GGGG linker); also called C-term VH-(long)-VL
# B25: v29685 (scFv)
# scFv: B24 scFv with G45C, G244C
# notes: One-armed, scFv at the C-terminus of Het FcA; VL-G100C and VH-G44C already in the entry; also called C-term VH-(long)-VL + disulfide
# B26: v29676 (scFv)
# scFv: DIQMTQSPSSLSASVGDRVTITCQASQSIYSSLAWYQQKPGKAPKLLIYDASHLASGVPSRFSGSRYGTDFTLTISSVQPEDFATYYCQGGWYSSAATYVPNTFGGGTKVEVKGGGGSGGGGSGGGGSEVQLVESGGGLVQPGGSLRLSCAASGFTISNNYYMCWVRQAPGKGLEWIACIYGGISGRTYYADSAKGRFTISKDSSNTVYLQMNSLRAEDTAVYYCVRGYVGTSNLWGQGTLVTVSS
# notes: One-armed: scFv fused by an Ala-Ala linker to the N-terminus (hinge) of Het FcA, paired with Het FcB Fc; also called N-term VL-(short)-VH
# B27: v29678 (scFv)
# scFv: B26 scFv
# notes: also called C-term VL-(short)-VH
# B28: v29682 (scFv)
# scFv: B26 scFv with G106C, G173C
# notes: One-armed, scFv at the C-terminus of Het FcA; VL-G100C and VH-G44C (Kabat) already in the entry; also called C-term VL-(short)-VH + disulfide
# B29: v29675 (antibody, V domains shown)
# VH: B10 VH
# VL: DIQMTQSPSSLSASVGDRVTITCQASQSIYSSLAWYQQKPGKAPKLLIYDASHLASGVPSRFSGSRYGTDFTLTISSVQPEDFATYYCQGGWYSSAATYVPNTFGGGTKVEVK
# notes: One-armed antibody, humanized 8K22 (H4L3 of v23807) Fab on a heterodimeric IgG1 Fc; also called N-term Parent Fab; Parent Fab antibody
# B30: v29677 (scFv)
# scFv: DIQMTQSPSSLSASVGDRVTITCQASQSIYSSLAWYQQKPGKAPKLLIYDASHLASGVPSRFSGSRYGTDFTLTISSVQPEDFATYYCQGGWYSSAATYVPNTFGGGTKVEVKGGSGGGSGGGSGGGSGGGSGEVQLVESGGGLVQPGGSLRLSCAASGFTISNNYYMCWVRQAPGKGLEWIACIYGGISGRTYYADSAKGRFTISKDSSNTVYLQMNSLRAEDTAVYYCVRGYVGTSNLWGQGTLVTVSS
# notes: One-armed, scFv at the N-terminus of Het FcA (Ala-Ala linker); also called N-term VL-(long)-VH
# B31: v29680 (scFv)
# scFv: B30 scFv
# notes: One-armed, scFv at the C-terminus of Het FcA (GGGG linker); also called C-term VL-(long)-VH
# B32: v29684 (scFv)
# scFv: B30 scFv with G106C, G178C
# notes: One-armed, scFv at the C-terminus of Het FcA; VL-G100C and VH-G44C already in the entry; also called C-term VL-(long)-VH + disulfide
# Target: T1, recombinant His-tagged human FRα (human, UniProt P15328 25-234)
# T1 construct: Bought protein; also called hFRα; FRα-HIS
# T1 sequence (P15328 25-234 limits assumed): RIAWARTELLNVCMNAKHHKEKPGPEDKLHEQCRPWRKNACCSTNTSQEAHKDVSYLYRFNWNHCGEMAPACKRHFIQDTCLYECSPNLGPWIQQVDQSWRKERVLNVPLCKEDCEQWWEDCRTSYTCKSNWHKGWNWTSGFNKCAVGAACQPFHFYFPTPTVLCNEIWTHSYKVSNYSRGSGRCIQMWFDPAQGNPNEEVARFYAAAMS
# Test: BLI, purified, average n=2
# Procedure: (§1) The assay buffer used was KB buffer (kinetics buffer, composed of PBS pH 7.4, 0.1% BSA, 0.02% Tween 20, 0.05% sodium azide) supplemented with 0.06% Tween 20. The experiment was conducted at 25° C. with a shake speed of 1000 rpm.
# (§2) Data analysis was performed using the Data analysis software 9.0′ (ForteBio). The reference-subtracted binding curves were globally fitted to the 1:1 interaction model to generate the binding kinetic parameters kₒₙ, koff, and the dissociation constant KD.
row,Kd,Binder
1,4.11 nM,B1
2,7.36 nM,B2
3,8.53 nM,B3
4,8.66 nM,B4
5,4.66 nM,B5
6,8.83 nM,B6
7,9.03 nM,B7
8,10.2 nM,B8
9,10.6 nM,B9
10,6.41 nM,B10
11,13.1 nM,B11
12,7.07 nM,B12
13,6.31 nM,B13
14,8.74 nM,B14
15,11.9 nM,B15
16,6.13 nM,B16
17,7 nM,B17
18,6.85 nM,B18
19,16.5 nM,B19
20,11.2 nM,B20
21,4.8 nM,B21

# Target: T1, recombinant His-tagged human FRα
# Test: BLI, supernatant, n=1
# Procedure: as §1, §2
row,Kd,Binder
1,5.94 nM,B1
2,15.1 nM,B2
3,17.9 nM,B3
4,22.1 nM,B4
5,9.29 nM,B5
6,22.5 nM,B6
7,12.1 nM,B7
8,16.2 nM,B8
9,10.4 nM,B9
10,9.5 nM,B10
11,19.3 nM,B11
12,10.9 nM,B12
13,10.1 nM,B13
14,19.5 nM,B14
15,14.9 nM,B15
16,17.4 nM,B16
17,11.5 nM,B17
18,11.9 nM,B18
19,16.7 nM,B19
20,22.2 nM,B20
21,13.8 nM,B21

# Target: T1, recombinant His-tagged human FRα
# Test: BLI, n=2
# Procedure: as §1, §2
# All parameters remained the same except for the dissociation phase which was recorded for 1500 s.
row,Kd,Binder
1,0.39 nM,B22
2,1.1 nM,B23
3,2.6 nM,B24
4,4.2 nM,B25
5,3.9 nM,B26
6,5.1 nM,B27
7,2.1 nM,B28
8,4.1 nM,B29
9,5 nM,B30
10,1.8 nM,B31
11,0.88 nM,B32

# From patent US20230052369A1 (Zymeworks, published 2023)
